# According to patent publication US20240417475A1 (AFFIMED, published 2024):
# B1: scFv-IgAb_387 (FOLR1_1×CD16a3) (bispecific antibody)
# heavy: EVQLVESGGGVVQPGRSLRLSCSASGFTFSGYGLSWVRQAPGKGLEWVAMISSGGSYTYYADSVKGRFAISRDNAKNTLFLQMDSLRPEDTGVYFCARHGDDPAWFAYWGQGTPVTVSSASTKGPSVFPLAPSSKSTSGGTAALGCLVKDYFPEPVTVSWNSGALTSGVHTFPAVLQSSGLYSLSSVVTVPSSSLGTQTYICNVNHKPSNTKVDKKVEPKSCDKTHTCPPCPAPEFEGGPSVFLFPPKPKDTLMISRTPEVTCVVVAVSHEDPEVKFNWYVDGVEVHNAKTKPREEQYNSTYRVVSVLTVLHQDWLNGKEYKCKVSNKALPAPIEKTISKAKGQPREPQVYTLPPSREEMTKNQVSLTCLVKGFYPSDIAVEWESNGQPENNYKTTPPVLDSDGSFFLYSKLTVDKSRWQQGNVFSCSVMHEALHNHYTQKSLSLSPGGGGGSGGGGSGGGGSGGGGSGGGGSGGGGSSYELTQPLSVSVALGQTARITCGGNNIGSKSVHWYQQKPGQAPVLVIYQDKKRPSGIPERFSGSNSGNTATLTISRAQAGDEADYYCQVWDDYIVLFGCGTKLTVLGGSGGSGGSGGSGGSGGSGGSQVQLVQSGAEVKKPGASVKVSCKASGYTFTNYYMQWVRQAPGQCLEWMGIINPSGGVTSYAQKFQGRVTMTRDTSTSTVYMELSSLRSEDTAVYYCARGSAYYYDFADYWGQGTLVTVSSG
# light: DIQLTQSPSSLSASVGDRVTITCSVSSSISSNNLHWYQQKPGKAPKPWIYGTSNLASGVPSRFSGSGSGTDYTFTISSLQPEDIATYYCQQWSSYPYMYTFGQGTKVEIKRTVAAPSVFIFPPSDEQLKSGTASVVCLLNNFYPREAKVQWKVDNALQSGNSQESVTEQDSKDSTYSLSSTLTLSKADYEKHKVYACEVTHQGLSSPVTKSFNRGEC
# modifications: Chemically biotinylated (NHS-PEG4-biotin) in Example 22 only.
# notes: Tetravalent bispecific scFv-IgAb; also called FOLR1×CD16A scFv-IgAb_387; FOLR1/CD16A scFv-IgAb_387; copies: 2 + 2
# What was measured:
# [1] = biological target: T1, CD16A endogenously expressed on primary human NK cells (human, UniProt P08637 17-254); assay: flow cytometry on primary human NK cells at 37 °C, biotinylated antibody, streptavidin-FITC, in the presence of 10 mg/mL polyclonal human IgG (competitor)
# T1 sequence (P08637 17-254 limits assumed): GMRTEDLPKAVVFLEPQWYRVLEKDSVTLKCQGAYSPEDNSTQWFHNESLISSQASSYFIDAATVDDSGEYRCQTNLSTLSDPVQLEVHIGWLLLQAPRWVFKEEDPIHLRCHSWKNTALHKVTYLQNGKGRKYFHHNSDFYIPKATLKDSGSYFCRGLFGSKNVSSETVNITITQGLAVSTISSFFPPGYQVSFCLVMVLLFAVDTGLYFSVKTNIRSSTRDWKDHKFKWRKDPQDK
# Description: (§1) Frozen NK cells were thawed, and viability was determined with trypan blue (Sigma-Aldrich, cat.: T8154). Cells have been centrifuged at 400×g, 5 min, 4° C. Cell pellets were resuspended in FACS buffer PBS (Invitrogen, cat.: 392-0434) containing 2% h.i. FCS (Invitrogen, cat.: 10500-064), and 0.1% sodium azide (Sigma, cat.: S8032) at 2×10⁶ cells/mL. 100 μL/well of the cell suspension were transferred into U-shaped 96 well plates, cells were pelleted at 400×g, 5 min. 4° C., and resuspended in 50 μL/well of diluted antibody constructs. […] After 40-50 minutes' incubation at 37° C., cells were washed 3-times with ice-cold FACS buffer. […] After the final incubation step, cells were washed 2-times with ice-cold FACS buffer, and the cell pellet was resuspended in 50 μL FACS buffer. Fluorescence intensity of >1×10⁴ viable cells was analyzed by flow cytometry and the median fluorescence intensity (MFI) was determined for each sample.
# [2] = biological target: T2, human FOLR1 endogenously expressed on tumor cell lines (human, UniProt P15328 25-234); assay: cell-based or functional assay
# T2 sequence (P15328 25-234): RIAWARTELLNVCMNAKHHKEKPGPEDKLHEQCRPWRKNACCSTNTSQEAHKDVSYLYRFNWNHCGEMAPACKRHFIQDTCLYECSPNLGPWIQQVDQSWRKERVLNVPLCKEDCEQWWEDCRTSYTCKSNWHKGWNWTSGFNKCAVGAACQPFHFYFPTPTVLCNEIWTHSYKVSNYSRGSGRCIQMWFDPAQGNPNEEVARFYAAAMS
# [3] = biological target: T2, human FOLR1 endogenously expressed on …; assay: flow cytometry on IGROV-1 cells (FOLR1 high) at 37 °C, FITC anti-human IgG detection
# How it was run: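 Cells in PBS with 2% h.i. FCS and 0.1% sodium azide, 0.1-0.5×10⁶ per well, were incubated 40-50 min with serial antibody dilutions, then washed with ice-cold buffer. Median fluorescence intensity of >1×10⁴ viable cells was determined by flow cytometry.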
# [4] = biological target: T2, human FOLR1 endogenously expressed on …; assay: flow cytometry on OVCAR-3 cells (FOLR1 medium) at 37 °C, FITC anti-human IgG detection
# Description: (§2) Cells were collected and centrifuged at 400×g, 5 min, 4° C. Cell pellets were resuspended in FACS buffer (PBS (Invitrogen, cat.: 392-0434) containing 2% h.i. FCS (Invitrogen, cat.: 10500-064), and 0.1% sodium azide (Sigma, cat.: S8032)) at 1-5×10⁶ cells/mL. 100 μL/well of the cell suspension were transferred into U-shaped, 96-well micro plates (0.1-0.5×10⁶ cells per well), cells were pelleted at 400×g, 5 min, 4° C., and resuspended in 100 μL/well of serial dilutions of the indicated antibodies in FACS buffer. After 40-50 min incubation at 37° C., cells were washed 3-times with ice-cold FACS buffer. […] After the final incubation step, cells were washed 2-times with ice-cold FACS buffer, and the cell pellet was resuspended in 100 μL FACS buffer. Fluorescence intensities of >1×10⁴ viable cells were analyzed by flow cytometry and the median fluorescence intensity (MFI) was determined for each sample.
# [5] = biological target: T1, CD16A endogenously expressed on primary …; assay: flow cytometry on primary human NK cells, without IgG, range of 4 experiments
# Description: (§3) 4° C., and resuspended in 50 μL/well of diluted antibody constructs. […] After 40-50 minutes' incubation at 37° C., cells were washed 3-times with ice-cold FACS buffer. […] After the final incubation step, cells were washed 2-times with ice-cold FACS buffer, and the cell pellet was resuspended in 50 μL FACS buffer. Fluorescence intensity of >1×10⁴ viable cells was analyzed by flow cytometry and the median fluorescence intensity (MFI) was determined for each sample.
# (§4) Equilibrium dissociation constants (KD) of antibody binding were calculated by plotting MFI values and fitting a non-linear regression model for one-site binding to hyperbolic dose-response curves using GraphPad Prism.
# [6] = biological target: T1, CD16A endogenously expressed on primary …; assay: flow cytometry on primary human NK cells, with against without 10 mg/mL polyclonal human IgG
# Description: as §3, §4
# [7] = biological target: T2, human FOLR1 endogenously expressed on …; assay: cell-based or functional assay; remark: listed apart in the source
# [8] = biological target: T2, human FOLR1 endogenously expressed on …; assay: flow cytometry on HCC-827 cells, 37 C, one-site fit of MFI, mean
# Description: as §2
# (§5) Equilibrium dissociation constants (KD) of antibody binding, mean and standard deviation (SD) were calculated by plotting MFI values and fitting a non-linear regression model for one-site binding to hyperbolic dose-response curves using GraphPad Prism for Windows (v9; GraphPad Software; La Jolla California USA).
# (§6) Specific antibody binding capacity (SABC) as a marker for FOLR1 expression level on cells was determined on all tumor cell lines using QIFIKIT.
# [9] = biological target: T2, human FOLR1 endogenously expressed on …; assay: cell-based or functional assay; remark: listed apart in the source
# [10] = biological target: T1, CD16A endogenously expressed on primary …; assay: flow cytometry on primary human NK cells, with 10 mg/mL polyclonal human IgG as competitor, range of 4 experiments
# Description: as §3, §4
# [11] = biological target: T1, CD16A endogenously expressed on primary …; assay: flow cytometry on primary human NK cells, biotinylated antibody, 37 C, without IgG, mean of 4
# Description: as §3, §4
# [12] = biological target: T1, CD16A endogenously expressed on primary …; assay: flow cytometry on primary human NK cells at 37 °C, biotinylated antibody, streptavidin-FITC, without polyclonal human IgG
# Description: as §1
# [13] = biological target: T2, human FOLR1 endogenously expressed on …; assay: flow cytometry on NCI-H2110 cells, 37 C, one-site fit of MFI, mean
# Description: as §2, §5, §6
binder,measurement,setting,value
B1,EC50 (read off the curve),[1],~20 nM
same,"EC50 of ADCC, 4 h calcein release, NK cells, HCC-827 cells",[2],0.006 nM
same,"EC50 of ADCC, 4 h calcein release, NK cells, OVCAR-3 cells",[2],0.0008 nM
same,EC50 (read off the curve),[3],~3 nM
same,EC50 (read off the curve),[4],~2 nM
same,Kd,[5],3.7 to 5.4 nM
same,fold loss in KD induced by IgG,[6],5.3 fold
same,"EC50 [pM] of ADCC, 4 h calcein release, NK cells E:T 5:1, IGROV-1 cells",[7],1 pM
same,"EC50 [pM] of ADCC, A2780 cells",[7],5.5 pM
same,"EC50 [pM] of ADCC, HCC-827 cells",[7],2.8 pM
same,"EC50 [pM] of ADCC, MDA-MB-231 cells",[7],6.5 pM
same,"EC50 [pM] of ADCC, NCI-H2110 cells",[7],0.8 pM
same,"EC50 [pM] of ADCC, OVCAR-3 cells",[7],1.1 pM
same,"fold-improvement in efficacy vs IgAb_335, ADCC, A2780 cells",[7],2.9 fold
same,"fold-improvement in efficacy vs IgAb_335, ADCC, HCC-827 cells",[7],1.9 fold
same,"fold-improvement in efficacy vs IgAb_335, ADCC, IGROV-1 cells",[7],0.9 fold
same,"fold-improvement in efficacy vs IgAb_335, ADCC, MDA-MB-231 cells",[7],2.1 fold
same,"fold-improvement in efficacy vs IgAb_335, ADCC, NCI-H2110 cells",[7],1.2 fold
same,"fold-improvement in efficacy vs IgAb_335, ADCC, OVCAR-3 cells",[7],1.4 fold
same,"fold-improvement in potency vs IgAb_335, ADCC, A2780 cells",[7],593 fold
same,"fold-improvement in potency vs IgAb_335, ADCC, HCC-827 cells",[7],30.8 fold
same,"fold-improvement in potency vs IgAb_335, ADCC, IGROV-1 cells",[7],15.1 fold
same,"fold-improvement in potency vs IgAb_335, ADCC, MDA-MB-231 cells",[7],54 fold
same,"fold-improvement in potency vs IgAb_335, ADCC, NCI-H2110 cells",[7],34.4 fold
same,"fold-improvement in potency vs IgAb_335, ADCC, OVCAR-3 cells",[7],40.4 fold
same,Kd,[8],2.7 nM
same,"EC50 [nM] of ADCP, DK-MG cells",[9],0.1 nM
same,"EC50 [nM] of ADCP, HCC-78 cells",[9],17.8 nM
same,"EC50 [nM] of ADCP, HeLa cells",[9],0.16 nM
same,"Phagocytosis [%], 4 h ADCP, DK-MG cells",[9],17.6%
same,"Phagocytosis [%], 4 h ADCP, HCC-78 cells",[9],26%
same,Kd,[10],14.3 to 36.4 nM
same,Kd,[11],4.3 nM
same,EC50 (read off the curve),[12],~4 nM
same,Kd,[13],2.5 nM
